In doi:10.1101/2025.08.03.668247, “The structure of Egalitarian in complex with the K10 mRNA localization signal reveals a modular binding surface required for function”:
Substitutions are numbered along the chain they refer to.

What was measured:
Assay in all cases: fluorescence anisotropy; FA: 20 mM HEPES-NaOH pH 7.5, 100 mM NaCl, 10% glycerol, 20 C, 10 nM FAM-RNA; competition: 150 nM Egl512-819 + 10 nM FAM-K10 TLS, same buffer
Settings in all cases: protein: recombinant; tags: N-terminal GST; label: 5'-6-FAM; hairpin with two bulges
[1] = target: T1, R619E (Drosophila melanogaster, UniProt Q9W1K4 512-819, R619E)
T1 sequence: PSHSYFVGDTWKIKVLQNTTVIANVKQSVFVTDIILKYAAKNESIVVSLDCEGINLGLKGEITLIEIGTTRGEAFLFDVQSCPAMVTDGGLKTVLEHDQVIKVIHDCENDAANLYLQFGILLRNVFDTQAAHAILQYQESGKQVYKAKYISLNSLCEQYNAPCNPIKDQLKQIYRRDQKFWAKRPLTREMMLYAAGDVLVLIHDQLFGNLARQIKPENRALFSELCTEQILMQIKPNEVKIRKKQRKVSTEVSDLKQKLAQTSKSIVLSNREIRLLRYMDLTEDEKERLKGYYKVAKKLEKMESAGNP

[2] = target: T2, K758A (Drosophila melanogaster, UniProt Q9W1K4 512-819, K758A)
T2 sequence: T1 sequence with E108R, K247A

[3] = target: T3, K754A (Drosophila melanogaster, UniProt Q9W1K4 512-819, K754A)
T3 sequence: T1 sequence with E108R, K243A

CUUGAUUGUAUUUUUAAAUUAAUUCUUAAAAACUACAAAUUAAG (structured_RNA) [K10 TLS (FAM)] gave a Kd [1] of 318 ± 15 nM, a Kd [2] of 319 ± 19 nM and a Kd [3] of 212 ± 8 nM.
